Test results published in patent US12062453B2, “Self-titrating bacterial protease-activated prodrug” (GEORGIA TECH RESEARCH CORPORATION, priority 2018, dated 2024).
Where two headings read alike, the source gives them in different places.

Experiments:
DH5a Escherichia coli = type: cell-based
Procedure: Bacterial culture and cytotoxicity measurement: DH5a Escherichia coli were a gift from Todd Sulchek's BioMEMS lab at Georgia Tech. E. coli were cultured in LB broth (Lennox) at 37 C and plated on LB agar (Lennox) plates. LB broth was purchased from Millipore Sigma (Burlington, Mass.) and LB agar was purchased from Invitrogen (Carlsbad, Calif.). AMP and locked AMP were custom ordered from Genscript (Piscataway, NJ). […] Concentration was estimated by measuring the OD600 of the bacterial suspension, and assuming an OD600 of 1.000 corresponds to a concentration of 8×10^8 CFU/mL. Bacterial cell viability was measured by making eight 10-fold serial dilutions, and plating three 10 uL spots on an LB agar plate. Plates were incubated overnight at 37° C., and CFUs were counted.

OmpT [1] = target: T1, OmpT (Escherichia coli, UniProt P09169); type: cell-based, E. coli; parameters: OmpT expressed on the surface of E. coli; endogenous in cells; host or cells: DH5a Escherichia coli
T1 sequence (P09169 21-317): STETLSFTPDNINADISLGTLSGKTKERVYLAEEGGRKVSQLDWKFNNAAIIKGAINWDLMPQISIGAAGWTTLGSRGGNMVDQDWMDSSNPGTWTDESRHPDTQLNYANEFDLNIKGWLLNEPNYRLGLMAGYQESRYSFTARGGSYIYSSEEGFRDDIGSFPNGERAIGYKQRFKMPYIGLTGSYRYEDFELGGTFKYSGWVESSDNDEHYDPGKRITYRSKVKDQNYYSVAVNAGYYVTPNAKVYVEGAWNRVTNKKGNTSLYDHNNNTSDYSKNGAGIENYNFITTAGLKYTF
Procedure: To model the rate of enzymatic activation of locked drugs, L, by OmpT, Michaelis-Menten (MM) kinetics were applied, where the rate of substrate activation is determined by the catalytic rate of the reaction, kcat, and the half-maximal substrate concentration, Km (Equation 1.3). Here it was assumed the system constituted a well-mixed solution of freely diffusing substrates (i.e., locked drug) in large excess, which were valid assumptions for this study since AMP prodrug was present at concentrations ˜102 micromolar in an aqueous environment. Because the total amount of drug is conserved, the MM activation rate of unlocked drug, U, was defined as opposite of the degradation rate of locked drug L (Equation 1.4). A term to account for the loss of active AMPS was included according to a proportionality constant, a*, that represents the number AMP required to kill one E. coli. This term was necessary as AMPS lyse E. coli by intercalating with bacterial membranes (Roversi, et al. ACS Chemical Biology, 9:2-3-2007 (2014)) and therefore are removed from the system and unable to target additional bacteria.
To fit this model to the disclosed system, the values for relevant parameters, including enzymatic efficiency (e.g., kcat, Km), bacterial growth (e.g., r, Bmax), and prodrug activity (e.g., a, a*) were measured (FIGS. 2A-2D, Table 2). This allowed for the prediction of bacteria-prodrug response curves (FIGS. 3B-3J) across nine distinct combinations of kcat and r values, which were experimentally controlled by altering the ambient temperature and concentration of broth (conditions labeled A1-3, B1-3, and C1-3). […] To experimentally validate the model predictions, bacteria were incubated with prodrugs under the defined nine conditions, and the number of living bacteria were quantified longitudinally over the course of a 24 hour treatment window. […]

[2] = target: T2, OmpT expressed on the surface of E. coli (Escherichia coli, UniProt P09169); type: cell-based
T2 construct: OmpT expressed on the surface of E. coli; endogenous in cells; host or cells: DH5a Escherichia coli
T2 sequence (P09169 21-317): as above

OmpT [3] = target: T1, OmpT; type: biochemical, E. coli; parameters: purchased Lifespan Biosciences (Seattle, WA)
Procedure: Protease Cleavage Assays: All protease cleavage assays were performed with a BioTek Cytation 5 Imaging Plate Reader, taking fluorescent measurements at 485/528 nm (excitation/emission) for read-outs measuring peptide substrates terminated with FITC (Fluorescein isothiocyanate). Kinetic measurements were taken every minute over the course of 60-120 minutes at 37 C. Tobacco Etch Virus protease (TEVp), along with its substrate and buffer was obtained from Anaspec, Inc. (Fremont, Calif.). Activity RFU measurements were normalized to time 0 measurement, and as such represent fold change in signal. Outer Membrane Protease T (i.e., OmpT, Protease 7) was purchased from Lifespan Biosciences (Seattle, WA). OmpT fluorescent peptide substrate was custom ordered from Genscript (Piscataway, NJ).

AMP: cationic (polyarginine) antimicrobial peptide, the unlocked drug (KLAKLAKKLAKLAK; Bacterial protease substrate)
Cytotoxicity of unlocked drug (colonies) (DH5a Escherichia coli): significant reduction in colonies | a*, AMP decay (number of AMP required to kill one E. coli) (OmpT [1]): 2.4e11 AMP/bacteria | a, cytotoxic efficiency, EC50 (OmpT [1]): 1e11 h^−1, AMP/bacteria/hr

Aprotinin
Bacteria load after prodrug treatment (DH5a Escherichia coli; locked AMP plus Aprotinin inhibitor): did not significantly reduce bacteria load | OmpT activity in samples containing inhibitor ([2]; live E. coli culture plus inhibitor): no activity was observed | OmpT activity in samples containing inhibitor (OmpT [3]; recombinant OmpT plus inhibitor): no activity was observed

DABCYL-RRSRRV-Lys(5-FAM) [OmpT Probe]
OmpT cleavage activity against fluorophore-quencher linker probe ([2]; live E. coli culture): OmpT activity was detected | OmpT cleavage activity against fluorophore-quencher linker probe (OmpT [3]; recombinant OmpT): OmpT activity was detected

EEEEEEEEEEEEERRSRRVRRRRRRRRR [Locked AMP (linker 1)]
Bacteria load after prodrug treatment (DH5a Escherichia coli; prodrug alone): Elimination of bacteria | Km, Michaelis constant (OmpT [1]): 9e+12 µL⁻¹ | kcat (OmpT [1]; condition A1: 37 °C, LB broth 0%): 25 h^−1 × 10^10 | kcat (OmpT [1]; condition A2: 30 °C, LB broth 2%): 13.6 h^−1 × 10^10 | kcat (OmpT [1]; condition A3: 37 °C, LB broth 2%): 22 h^−1 × 10^10 | kcat (OmpT [1]; condition B1: 37 °C, LB broth 4%): 15 h^−1 × 10^10 | kcat (OmpT [1]; condition B2: 37 °C, LB broth 6%): 13.6 h^−1 × 10^10 | kcat (OmpT [1]; condition B3: 37 °C, LB broth 20%): 1 h^−1 × 10^10 | kcat (OmpT [1]; condition C1: 30 °C, LB broth 20%): 5.2 h^−1 × 10^10 | kcat (OmpT [1]; condition C2: 30 °C, LB broth 66%): 4 h^−1 × 10^10 | kcat (OmpT [1]; condition C3: 37 °C, LB broth 66%): 6 h^−1 × 10^10 | kcat, enzyme catalytic turnover (OmpT [1]; range over conditions): 0.7-25e10 h^−1

EEEEEEEEENLYFQGRRRRRRRRR [Locked AMP (linker 3)]
Bacteria load after prodrug treatment (DH5a Escherichia coli; prodrug alone): did not significantly reduce bacteria load | Bacteria load after prodrug treatment (DH5a Escherichia coli; prodrug plus TEV protease): Elimination of bacteria
